# Assay results from patent US5969097A, “Human guanylin” (G. D. Searle & Co., priority 1992, dated 1999).
# B1: rat guanylin: 15 amino acid rat guanylin peptide; shares 14 of 15 amino acids with human guanylin (peptide)
# peptide: MNAWLLSVLCLLGALAVLVEGVTVQDGDLSFPLESVKQLKHLREVQEPTLMSHKKFALRLPKPVAPELCSQSAFPEALRPLCEKPNAEEILQRLEAIAQDPNTCEICAYAACTGC
# Molecular target: T1, intestinal guanylate cyclase (Homo sapiens, UniProt P25092)
# T1 construct: host or cells: T84 human colon carcinoma cells
# Experiment: T84 cell bioassay: intracellular cyclic GMP levels
# Format: cell-based
# Conditions: compared with STa; T84 cells, FIG. 3a
# Method: a) Activity in the T84 cell bioassay. As determined by analysis of the effects of the peptides on intracellular cyclic GMP levels.
# Cell Culture: A cultured human colon carcinoma cell line (T84) was obtained from the American Type Culture Collection (Rockville, Md.) at passage 52. Cells were grown to confluency in 24-well culture plates with a 1:1 mixture of Ham's F12 medium and Dulbecco's modified Eagle's medium (DMEM), supplemented with 10% fetal calf serum, 100 IU/ml penicillin, and 100 μg/ml streptomycin. Cells were used at passages 54-60.
# Cyclic GMP determination: Monolayers of T84 cells in 24-well plates were washed twice with 1 ml/well DMEM, then incubated at 37 C. for 10 min with 0.5 ml DMEM containing 1 mM isobutylmethylxanthine (IBMX), a cyclic nucleotide phosphodiesterase inhibitor. Agents and fractions were then added for the indicated time as described in the results section. The media was then aspirated and the reaction terminated by the addition of ice cold 0.5 ml of 0.1N HCl. Aliquots were then evaporated to dryness under nitrogen and then resuspended in 5 mM sodium acetate buffer, pH 6.4. The samples were subsequently measured for cyclic GMP by RIA as described by Steiner et al. (16).
# T1 sequence (P25092 24-1073): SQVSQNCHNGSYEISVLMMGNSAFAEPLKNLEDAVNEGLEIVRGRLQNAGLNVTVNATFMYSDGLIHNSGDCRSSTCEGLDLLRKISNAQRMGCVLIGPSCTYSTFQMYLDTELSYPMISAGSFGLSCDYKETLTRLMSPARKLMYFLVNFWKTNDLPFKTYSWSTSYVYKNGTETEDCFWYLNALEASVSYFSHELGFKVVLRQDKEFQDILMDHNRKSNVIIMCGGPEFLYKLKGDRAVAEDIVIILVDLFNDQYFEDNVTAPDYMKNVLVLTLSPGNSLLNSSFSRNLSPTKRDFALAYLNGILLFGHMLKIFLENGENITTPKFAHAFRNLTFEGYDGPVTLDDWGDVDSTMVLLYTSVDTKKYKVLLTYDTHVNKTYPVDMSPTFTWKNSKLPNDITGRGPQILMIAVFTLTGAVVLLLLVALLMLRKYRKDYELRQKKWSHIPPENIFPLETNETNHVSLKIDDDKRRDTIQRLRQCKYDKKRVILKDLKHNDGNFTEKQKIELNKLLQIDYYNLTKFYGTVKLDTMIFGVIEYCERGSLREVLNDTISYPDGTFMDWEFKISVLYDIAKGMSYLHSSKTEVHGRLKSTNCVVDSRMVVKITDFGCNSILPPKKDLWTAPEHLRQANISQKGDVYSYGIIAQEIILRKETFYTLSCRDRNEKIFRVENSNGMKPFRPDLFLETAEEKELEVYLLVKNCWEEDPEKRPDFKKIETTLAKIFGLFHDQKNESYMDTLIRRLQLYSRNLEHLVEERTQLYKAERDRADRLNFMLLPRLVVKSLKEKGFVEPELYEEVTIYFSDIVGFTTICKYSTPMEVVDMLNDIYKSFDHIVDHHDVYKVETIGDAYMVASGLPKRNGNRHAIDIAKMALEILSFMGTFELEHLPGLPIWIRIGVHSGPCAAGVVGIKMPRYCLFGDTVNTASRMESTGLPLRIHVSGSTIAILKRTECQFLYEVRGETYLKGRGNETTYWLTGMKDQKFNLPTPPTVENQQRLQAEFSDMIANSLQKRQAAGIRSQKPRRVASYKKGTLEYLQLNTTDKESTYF
molecule,measurement,value
B1,relative potency to activate intestinal guanylate cyclase (T84 cell cyclic GMP),about one order of magnitude less potent than STa
